B1: TrpBA: wild-type E. coli DH5α tryptophan synthase, E.C.4.2.1.20, α- and β-subunits coexpressed (protein, UniProt P0A877 1-268; P0A879 2-397, looked up)
Tryptophan synthase alpha …: MERYESLFAQLKERKEGAFVPFVTLGDPGIEQSLKIIDTLIEAGADALELGIPFSDPLADGPTIQNATLRAFAAGVTPAQCFEMLALIRQKHPTIPIGLLMYANLVFNKGIDEFYAQCEKVGVDSVLVADVPVEESAPFRQAALRHNVAPIFICPPNADDDLLRQIASYGRGYTYLLSRAGVTGAENRAALPLNHLVAKLKEYNAAPPLQGFGISAPDQVKAAIDAGAAGAISGSAIVKIIEQHINEPEKMLAALKVFVQPMKAATRS
Tryptophan synthase beta chain: TTLLNPYFGEFGGMYVPQILMPALRQLEEAFVSAQKDPEFQAQFNDLLKNYAGRPTALTKCQNITAGTNTTLYLKREDLLHGGAHKTNQVLGQALLAKRMGKTEIIAETGAGQHGVASALASALLGLKCRIYMGAKDVERQSPNVFRMRLMGAEVIPVHSGSATLKDACNEALRDWSGSYETAHYMLGTAAGPHPYPTIVREFQRMIGEETKAQILEREGRLPDAVIACVGGGSNAIGMFADFINETNVGLIGVEPGGHGIETGEHGAPLKHGRVGIYFGMKAPMMQTEDGQIEESYSISAGLDFPSVGPQHAYLNSTGRADYVSITDDEALEAFKTLCLHEGIIPALESSHALAHALKMMRENPDKEQLLVVNLSGRGDKDIFTVHDILKARGEI
B2: TDC1: C. accuminata tryptophan decarboxylase expressed in E. coli DH5α (protein, UniProt P93082 1-502, looked up)
Tryptophan decarboxylase TDC1: MGSLDSNYDTESPASVGQFNPLDPEEFRKQAHCIVDFIADYYKNIESYPVLSQVDPGYRHSRLGKNAPYRSEPFESILKDVQKDIIPGMTHWMSPNFFAHFPATVSSAAFVGEMLCTCFNSVGFNWLASPAATELEMVVIDWLANMLKLPKSFMFSGTGGGVLQGTTSEAILCTLIAASPMHFEIVGVKTSTSFVVYGSDQTHSTYAKACKLAGILPCNIRSIPTTADSNFSVSPLLLRRAIEADKAAGMVPLYICATVGTTSTTAIDPLSSLADVANDYGVWFHVDAAYAGSACICPEFRHYLDGIERADSLSLSPHKWLLSYLDCCCLWVKSPSLLVKALSTDPEYLKNQPSESKSVVDYKDWQVGTGRRFKALRLWFVMRSYGVANLQSHIRTDVQMAKMFEGFVKSDPRFEILVPRVFSLVCFRLNPISGSDPTGTEALNRKLLDWVNSTGRVYMTHTKVGGIYMLRFAVGATLTEKRHVSSAWKLIKEGADVLLKED
B3: TDC2: C. accuminata tryptophan decarboxylase expressed in E. coli DH5α (protein, UniProt P93083 1-498, looked up)
Tryptophan decarboxylase TDC2: MGSIDSNYDTESAGQCRPLEPEEFRKQAHQMVDFIADYYKNIESYPVLSQVEPGYLQSRLPETAPYRPEPFESILKDVHKDIIPGVTHWLSPNFFAYFPATVSSAAFVGEMLCTCFNAVGFNWLASPAELELEMVVMDWLASMLKLPNSFTFLGTGGGVIQGTTSEAILCTLIAARDRALESIGVDSIHKLVVYGSDQTHSTYAKACNLAGILPCNIRSIRTEAVANFSLSPDSLHREIEADVAAGMVPLYLCATVGTTSTTAIDSLSPLADVANDYGLWFHVDAAYAGSACICPEFRHYLDGIERADSLSLSPHKWLLSYLDCCCLWVKRPSVLVKALSTDPEYLKNKPSESNSVVDFKDWQVGTGRRFKALRLWFVMRSYGVANLQSHIRSDIQMAKMFEEFVNSDPRFEIVVPRVFSLVCFRLNPFSKSDPCNTELLNRKLLEWVNSTGQVYITHTKVGGVYMLRFAVGATLTEEHHVSAAWKLIREGADALLCS

Assays:
TrpBA = biological target: T1, TrpBA (Escherichia coli, UniProt P0A879); experiment: Relative rates of tryptophan derivative synthesis by HPLC, TrpBA; assay type: biochemical, E. coli; settings: initial rate estimated by HPLC, indole = 100%, L-serine
T1 construct: made in house; host or cells: E. coli LMG194 (pBAD) or BL-21 (pET)
Experimental: (§1) Reaction mixtures were prepared as in Example 6 and were incubated at 37° C. Aliquots (100 μL) were removed and quenched by addition of to 300 μL of 0.5 M sodium citrate, pH 3.0 in 10% v/v acetonitrile/water in 2 ml microcentrifuge tubes. Following centrifugation for 10 min at 13,000×g, the supernatants were passed through 0.45μ membrane filters prior to HPLC analysis of 20 μL of filtrate.
(§2) TnA reactions were run with L-serine as the 3-carbon substrate.

[1] = biological target: T2, E. coli DH5α tryptophan synthase (TrpBA) (Escherichia coli, UniProt P0A879); assay type: biochemical; parameters: key: +: a clear ninhydrin-positive spot at the Rf of standard tryptophan derivatives after 16-65 h; (+): a weak spot in the product region; −: no product observed; NR: experiment not run; settings: indole derivative + L-serine + PLP, 37° C., 16-65 h, ninhydrin
T2 construct: made in house; host or cells: E. coli LMG194 (pBAD) or BL-21 (pET)
Experimental: (§3) A mixture containing 2 μmole of the indole derivative, 0.05 μmole of PLP and 50 μmol of L-serine in 40 mM KPi buffer in 8% v/v ethanol water, pH 7.5, was warmed to 37° C., then enzyme solution was added to give a final volume of 1 mL. Aliquots (100 μL) were quenched at intervals of 2, 6, and 24 hours or more in microcentrifuge capsules containing 25 μL of 6 M HCl. The quenched samples were evaporated in a Savant Speed-vac. The residues were resuspended in methanol/water (1:1, 50 μL) and analyzed by TLC on Silica gel GF254 plates alongside tryptophan and tryptamine standards, eluting with CH2Cl2/EtOH/H2O/HOAc 77:20:2:1. Products were visualized first by using short-wave UV light, then with ninhydrin spray reagent (1/1/98 w/v/v ninhydrin/HOAc/EtOH) followed by heating.
(§4) Substituted indoles were incubated with L-serine, PLP and enzyme (TrpBA or TnA) prior to TLC analysis as generally described in Example 6. Serine, which can be used instead of pyruvate and ammonia for tryptophan synthesis with TnA, was employed as the 3-carbon acid because pyruvate tended to obscure the tryptophan product spots when plates were visualized with ninhydrin. TnA-catalyzed formation of tryptophan was also faster when serine was the 3-carbon donor. Reaction rates for several substrates were also estimated by HPLC.
(§5) In Table 4, “+” indicates a clear ninhydrin-positive spot at the Rf of standard tryptophan derivatives after 16-65 h; “(+)” indicates a weak spot in the product region; “−” means no product observed, “NR” means experiment not run. ESMS=electrospray mass spectrometry. Unless otherwise indicated, the mass value given represents the singly-protonated molecular ion (M+1).

tryptophanase (TnA) = biological target: T3, tryptophanase (TnA) (Escherichia coli, UniProt P0A853); assay type: biochemical, E. coli; parameters: key: +: a clear ninhydrin-positive spot at the Rf of standard tryptophan derivatives after 16-65 h; (+): a weak spot in the product region; −: no product observed; NR: experiment not run; settings: indole derivative + L-serine + PLP, 37° C., 16-65 h, ninhydrin
T3 construct: made in house; host or cells: E. coli LMG194 (pBAD) or BL-21 (pET)
Experimental: as §3, §4, §5

TnA = biological target: T4, TnA (Escherichia coli, UniProt P0A853); experiment: Relative rates of tryptophan derivative synthesis by HPLC, TnA; assay type: biochemical, E. coli; settings: initial rate estimated by HPLC, indole = 100%, L-serine as the 3-carbon substrate
T4 construct: made in house; host or cells: E. coli LMG194 (pBAD) or BL-21 (pET)
Experimental: as §1, with “Aliquots” for “Reaction mixtures were prepared as in Example 6 and were incubated at 37° C. Aliquots”
as §2

TrpBA and TDC1 = experiment: Coupled enzyme synthesis monitored by HPLC; assay type: biochemical; settings: L-serine, PLP, pH 8.5 phosphate buffer, 37° C.
Experimental: To a solution containing L-serine (25 μmol), pyridoxal phosphate (0.05 μmol) and TrpBA (0.02 to 1.5 units, depending on the substrate), TDC1 (0.2 mL 0.6 units) and KPi buffer (0.05 mmol, pH 7.5) in a volume of 0.8 mL were added […] of 5 mM indole derivative in 20% v/v ethanol/water. The mixture was incubated at 37° C. and aliquots were quenched and analyzed as described for Example 8. In cases where tryptamine and/or tryptophan standards were not available, peaks were collected for mass spectral analysis. Electrospray mass spectral analyses were performed.
Mixtures containing indole, L-serine, PLP and TDC1 were incubated in pH 8.5 phosphate buffer, analyzing aliquots by HPLC, as described in Example 12.
The procedure used in Example 24 was carried out by substituting indole with 2-methylindole, 4-hydroxymethylindole, 5-methoxy-, 5-hydroxymethyl-, 5-methoxycarbonyl, and 5,6-dimethoxyindole.

[2] = pH-rate profiles for tryptophan-metabolizing enzymes; assay type: biochemical; settings: for activity over the entire optimum pH range shown by TrpBA: pH 7.5 to 9.5
Source text: Both AAADs TDC1 and TDC2 were active over the entire optimum range shown by TrpBA. These broad activity ranges make it clear that the coupled enzyme process is not limited by pH.

[3] = Tryptophan synthase activity of the enzyme preparation (290 nm assay); assay type: biochemical, E. coli
Experimental: (§6) Tryptophan synthase activity was assayed by monitoring the increase in absorbance at 290 nm of a mixture containing serine, indole and PLP (Higgins, W., et al., Biochemistry, 1979, 18, 4827). TnA-catalyzed tryptophan synthesis was also measured by the 290 nm assay, while the tryptophan lyase reaction rate was measured by monitoring the reduction in NADH in reaction mixtures containing L-tryptophan and lactate dehydrogenase, indicating the amount of pyruvate released. Tryptophan decarboxylase was assayed colorimetrically by monitoring the sabsorbance at 580 nm produced by serotonin (AAADs) or tryptamine (TDCs) following treatment of reaction aliquots with Ehrlich's reagent (4-N,N-(dimethyl)aminobenzaldehyde in ethanolic HCl; Nakazawa, H.; Kumagi, H.; Yamada, H. Biochem Biophys. Res. Commun., 1974, 61, 75-82). Serotonin could be detected with approximately 5-fold higher sensitivity by this method as compared with tryptamine. The Ehrlich reagent assay using a microtiter plate format for simultaneous analysis of multiple enzyme samples may also be used. HPLC analysis was performed on acid-quenched reaction aliquots by using a base-deactivated C8 reversed-phase support (Shandon Hypersil BD8). HPLC analysis of acid-quenched aliquots permitted calculation of a rate ratio of 4.5 to 1 for pkAAAD-catalyzed DOPA decarboxylation relative to that of L-5-hydroxytryptophan, in good agreement with the accepted ratio of approximately 5:1. (See Sourkes, T. L. Methods Enzymol., 1987, 142, 170-178, which is incorporated herein by reference.)
Reaction mixtures were prepared as in Example 6 in polymethacrylate or quartz spectrophotometer cuvettes, and the increase absorbance were measured immediately at 290 nm, assuming a change in extinction coefficient for the indole-tryptophan conversion is δ290=1.85 MM−1 cm^−1. For TrpBA, the rate at 37° C. is approximately 2.8 fold higher than at 23° C.
Activity is expressed as μmol product formed per minute, TrpBA activity is reported for the reaction: indole+serine−>tryptophan at room temperature as described in the next section. Tryptophanase is reported for the reaction: tryptophan−>indole+pyruvate+NH4^+ at room temperature. The rate of tryptophan synthesis for TrpBA under our assay conditions is approximately 3-fold higher at 37° C.

[4] = Decarboxylase activity of the enzyme preparations (Ehrlich's reagent); assay type: biochemical
Experimental: as §6
A mixture (0.95 mL) containing L-5-hydroxytryptophan (2 mM), PLP (0.25 mM) and pH 7.5 KPi buffer (44 mM) was warmed to 37° C., then 50 μL of enzyme was added. Reaction aliquots were quenched in microcentrifuge capsules containing 50 μL each of 6M HCl to quench the enzyme reaction at 2, 5, and 20 min. Quenched aliquots were heated at 50° C. for 40 min with 750 μL each of Ehrlich's reagent (2:24:74 w/v/v […]: conc HCl: ethanol). Absorbance was read at 580-nm and compared with standards of serotonin (10-250 μM) or tryptamine (50 to 2000 μM).
Decarboxylase enzyme activity was determined using L-5-hydroxytryptophan as the substrate unless otherwise stated.

[5] = Table 2, L-5-hydroxytryptophan as substrate

| Molecule | Relative rate (TrpBA) (TrpBA) [%] | TrpBA (tryptophan product spot, TLC analysis) [1] | TnA (tryptophan product spot, TLC analysis) (tryptophanase (TnA)) | Relative Rate (TnA) (TnA) [%] | activity over the entire optimum pH range shown by TrpBA [2] | Crude specific activity [4, 5] [units/mg] | Purified specific activity [4, 5] [Units/mg] | Crude specific activity ([4]; Table 3, decarboxylases) [units/mg] | further results |
| --- | --- | --- | --- | --- | --- | --- | --- | --- | --- |
| c1cc2cc3c(cc2[nH]1)OCO3 [5,6-methylenedioxy-] | 0.018 | − | + | 1.0 |  |  |  |  |  |
| c1ccc2[nH]ccc2c1 [indole, reference compound] | 100 | + | + | 100 |  |  |  |  | formation of tryptophan derivative and tryptamine (HPLC peaks) (TrpBA and TDC1): clearly observable |
| B1 |  |  |  |  |  |  |  |  | percent of the maximum rate ([2]; between pH 7.5 and 9.5, L-serine and indole): at least 90%; rate at 37° C. relative to 23° C. ([3]; 290 nm assay): approximately 2.8 fold; Crude specific activity ([3]; Table 3, TrpBA): 1.2 units/mg; Crude spec activity ([3]; TrpBA, indole+serine->tryptophan, room temperature): 1.2; Purified specific activity ([3]; TrpBA, indole+serine->tryptophan, room temperature, after DEAE cellulose): 2.2 Units/mg; rate of tryptophan synthesis at 37° C. relative to room temperature ([3]; assay conditions of Table 1): approximately 3 fold |
| B2 |  |  |  |  | active | 0.11 | 0.3 | 0.11 |  |
| B3 |  |  |  |  | active | 0.12 | 0.2 | 0.12 |  |

From US20030096379A1, “Method for producing tryptamine derivatives” (priority 2001, published 2003)
